Test results as given in the Immune Epitope Database (IEDB).
Values belong to the sequence of their own block, whether it stands above or below them.

Legend:
HLA-B*35:01 = assay: IEDB peptide-MHC binding, purified MHC/competitive/radioactivity; filed as Kd, often an IC50 or EC50 that approximates it; ≥ and ≤ were set here for values at or beyond the usual limits of such assays
HLA-B*53:01 = assay: as above
HLA-B*51:01 = assay: as above
HLA-B*07:02 = assay: as above
HLA-B*54:01 = assay: as above
HLA-A*30:01 = assay: as above
HLA-B*58:01 = assay: IEDB peptide-MHC binding, purified MHC/direct/fluorescence; filed as Kd, often an IC50 or EC50 that approximates it; ≥ and ≤ were set here for values at or beyond the usual limits of such assays; details: source organism: Burkholderia lata
HLA-B*57:01 = assay: as above
HLA-A*24:02 = assay: IEDB peptide-MHC binding, purified MHC/competitive/fluorescence; ≥ and ≤ were set here for values at or beyond the usual limits of such assays
HLA-A*02:01 [1] = assay: IEDB peptide-MHC binding, purified MHC/competitive/fluorescence; filed as Kd, often an IC50 or EC50 that approximates it; ≥ and ≤ were set here for values at or beyond the usual limits of such assays
HLA-A*02:02 = assay: IEDB peptide-MHC binding, purified MHC/competitive/radioactivity; filed as Kd, often an IC50 or EC50 that approximates it; ≥ and ≤ were set here for values at or beyond the usual limits of such assays; details: source organism: Vaccinia virus WR
HLA-A*02:03 = assay: as above; details: source organism: Vaccinia virus WR
HLA-A*02:06 = assay: as above; details: source organism: Vaccinia virus WR
HLA-A*02:01 [2] = assay: IEDB peptide-MHC binding, purified MHC/competitive/fluorescence; ≥ and ≤ were set here for values at or beyond the usual limits of such assays
HLA-B*27:05 = assay: IEDB peptide-MHC binding, purified MHC/direct/fluorescence; filed as Kd, often an IC50 or EC50 that approximates it; ≥ and ≤ were set here for values at or beyond the usual limits of such assays; details: source organism: Homo sapiens
HLA-A*03:01 = assay: as above; details: source organism: Homo sapiens
HLA-A*31:01 = assay: as above; details: source organism: Homo sapiens
HLA-A*01:01 = assay: as above; details: source organism: Homo sapiens
HLA-A*69:01 = assay: as above; details: source organism: Homo sapiens
HLA-A*11:01 = assay: as above; details: source organism: Homo sapiens
[3] = source organism: Vaccinia virus WR
[4] = source organism: Mammarenavirus lassaense
[5] = source organism: Dengue virus 2 Jamaica/1409/1983
[6] = source organism: Zaire ebolavirus
[7] = source organism: Human alphaherpesvirus 2
[8] = source organism: Vaccinia virus
[9] = source organism: Dengue virus 4 Philippines/H241/1956
[10] = source organism: Sudan ebolavirus
[11] = source organism: SARS coronavirus Tor2
[12] = source organism: Mammarenavirus brazilense
[13] = source organism: Dengue virus 1 Brazil/97-11/1997
[14] = source organism: Mammarenavirus machupoense

Sequence: CPKIFNNNY
Kd (HLA-B*35:01; [3]): 0.16 µM
Kd (HLA-B*53:01; [3]): 0.331 µM
Kd (HLA-B*51:01; [3]): ≥ 77.5 µM
Kd (HLA-B*07:02; [3]): ≥ 72.9 µM
Kd (HLA-B*54:01; [3]): 13 µM

Sequence: CPNCYDSVM
Kd (HLA-B*35:01; [4]): 0.00787 µM
Kd (HLA-B*53:01; [4]): 0.0795 µM
Kd (HLA-B*51:01; [4]): 5.71 µM
Kd (HLA-B*07:02; [4]): 0.205 µM
Kd (HLA-B*54:01; [4]): 4.5 µM

Sequence: CTKHSKDFA
Kd (HLA-A*30:01; [3]): 0.231 µM

Sequence: DARIYSDPLA
Kd (HLA-A*30:01; [5]): 0.744 µM

Sequence: DPEYFDNERI
Kd (HLA-B*35:01; [3]): ≥ 34.8 µM
Kd (HLA-B*53:01; [3]): 1.74 µM
Kd (HLA-B*51:01; [3]): 3.86 µM
Kd (HLA-B*07:02; [3]): ≥ 69.6 µM
Kd (HLA-B*54:01; [3]): 2.26 µM

Sequence: ETLWSPWKL
Kd (HLA-B*58:01): 1.41 µM
Kd (HLA-B*57:01; source organism: Burkholderia lata): ≥ 20 µM

Sequence: EWAFWETKK
IC50 (HLA-A*24:02; [6]): 5.98 µM

Sequence: GPHETITAL
Kd (HLA-B*35:01; [7]): 0.797 µM
Kd (HLA-B*53:01; [7]): 3.35 µM
Kd (HLA-B*51:01; [7]): ≥ 77.5 µM
Kd (HLA-B*07:02; [7]): 0.0014 µM
Kd (HLA-B*54:01; [7]): 4.85 µM

Kd (HLA-A*02:01 [1]; source organism: Escherichia coli 536): 0.0782 µM
Sequence: GQLASMVKL

Sequence: HIKTIAVSV
Kd (HLA-A*02:02): 3.08 µM
Kd (HLA-A*02:03): 0.0096 µM
Kd (HLA-A*30:01; [3]): 0.0668 µM
Kd (HLA-A*02:06): 1.55 µM

Sequence: HPFIYVIRHV
Kd (HLA-B*35:01; [3]): 7.04 µM
Kd (HLA-B*53:01; [3]): 2.01 µM
Kd (HLA-B*51:01; [3]): 1.02 µM
Kd (HLA-B*07:02; [3]): 11.7 µM
Kd (HLA-B*54:01; [3]): 0.00271 µM

Sequence: ICQLIIQAF
IC50 (HLA-A*24:02; [6]): 0.446 µM

Sequence: IFGNLSPET
IC50 (HLA-A*24:02; [8]): 14 µM
IC50 (HLA-A*02:01 [2]; [8]): 47.3 µM

Sequence: ISYIMLIFF
Kd (HLA-B*57:01; source organism: Yellow fever virus): 2.96 µM

Sequence: ITFLRVLSIP
Kd (HLA-A*30:01; [9]): 0.828 µM

Sequence: ITTAVKTVL
IC50 (HLA-A*24:02; [10]): 37.4 µM
IC50 (HLA-A*02:01 [2]; [10]): 55.3 µM

Sequence: ITVIDLDPIP
Kd (HLA-A*30:01; [5]): 0.295 µM

Sequence: KGRRQYFYG
Kd (HLA-A*30:01; [3]): 0.00285 µM

Sequence: KKKTWLVHK
Kd (HLA-A*30:01; [9]): 0.47 µM

Sequence: KLIIDREVV
Kd (HLA-A*02:01 [1]; [3]): 1.79 µM
IC50 (HLA-A*24:02; source organism: Vaccinia virus Copenhagen): ≥ 137 µM

Sequence: KMRRERAAY
Kd (HLA-A*30:01; [3]): 0.00304 µM

Sequence: KRTLTPQPME
Kd (HLA-A*30:01; source organism: Dengue virus 3 Martinique/1243/1999): 15.1 µM

Kd (HLA-B*27:05): 7.47 µM
Kd (HLA-A*03:01): 0.381 µM
Kd (HLA-A*31:01): 8.13 µM
Kd (HLA-A*01:01): 0.345 µM
Kd (HLA-A*69:01): 1.5 µM
Kd (HLA-A*11:01): 0.0408 µM
Sequence: KSDPIMLLK

Sequence: KSRRLNLFS
Kd (HLA-A*30:01; [3]): 0.00328 µM

Sequence: KTSFHIIFL
Kd (HLA-A*30:01; [3]): 0.025 µM

Sequence: LGADLDAVI
IC50 (HLA-A*24:02; [3]): 7.66 µM
IC50 (HLA-A*02:01 [2]; [3]): 20.5 µM

Sequence: LPFYSNVTGF
Kd (HLA-B*35:01; [11]): 0.0115 µM
Kd (HLA-B*53:01; [11]): 0.0798 µM
Kd (HLA-B*51:01; [11]): 0.861 µM
Kd (HLA-B*07:02; [11]): 0.563 µM
Kd (HLA-B*54:01; [11]): 0.132 µM

Sequence: LPSLEYGANY
Kd (HLA-B*35:01; [3]): 0.0151 µM
Kd (HLA-B*53:01; [3]): 0.0133 µM
Kd (HLA-B*51:01; [3]): ≥ 69.6 µM
Kd (HLA-B*07:02; [3]): ≥ 45.1 µM
Kd (HLA-B*54:01; [3]): 0.96 µM

Sequence: LPTSIVVPI
Kd (HLA-B*35:01; [12]): 0.00609 µM
Kd (HLA-B*53:01; [12]): 0.00751 µM
Kd (HLA-B*51:01; [12]): 0.0758 µM
Kd (HLA-B*07:02; [12]): 0.124 µM
Kd (HLA-B*54:01; [12]): 0.0177 µM

Sequence: LSRNKKPRI
Kd (HLA-A*30:01; [13]): 7.69 µM

Sequence: LVSIPRTNIV
Kd (HLA-A*02:01 [1]; source organism: Variola virus): 0.279 µM

Sequence: MLNNSLYYM
Kd (HLA-B*35:01; [14]): 8.71 µM
Kd (HLA-B*53:01; [14]): 9.77 µM
Kd (HLA-B*51:01; [14]): ≥ 36.7 µM
Kd (HLA-B*07:02; [14]): ≥ 77.4 µM
Kd (HLA-B*54:01; [14]): ≥ 36.7 µM

Sequence: MPNESRVKQW
Kd (HLA-B*35:01; [3]): 2.29 µM
Kd (HLA-B*53:01; [3]): 0.0304 µM
Kd (HLA-B*51:01; [3]): ≥ 69.6 µM
Kd (HLA-B*07:02; [3]): 2.39 µM
Kd (HLA-B*54:01; [3]): 5.36 µM

Sequence: MSVISNPSK
Kd (HLA-A*30:01; [3]): 0.0197 µM

Sequence: NAICSAVPVD
Kd (HLA-A*30:01; [13]): 12.1 µM

Sequence: NPKASTISWM
Kd (HLA-B*35:01; [3]): 7.66 µM
Kd (HLA-B*53:01; [3]): 8.15 µM
Kd (HLA-B*51:01; [3]): ≥ 69.6 µM
Kd (HLA-B*07:02; [3]): 0.0947 µM
Kd (HLA-B*54:01; [3]): ≥ 35.9 µM

Sequence: NSRSTSLSV
Kd (HLA-A*30:01; [5]): 0.0149 µM

Sequence: PKAENTNTS
IC50 (HLA-A*24:02; [6]): 61 µM

Sequence: QDGLICGLR
IC50 (HLA-A*24:02; [6]): 0.428 µM
IC50 (HLA-A*02:01 [2]; [6]): 13.3 µM
